Square brackets hold non-standard residues; d marks the D form. Ends that are not written are not given here. * marks the point of attachment. Palmitoyl = CCCCCCCCCCCCCCCC(=O)*; Myristoyl = CCCCCCCCCCCCCC(=O)*; Nle = CCCC[C@H](N)C(=O)O; NOMe = CON*

The target of test [1] is T1, rat PrRP receptor in RC-4B/C cells (rat, UniProt Q64121 1-370).
T1 construct: whole, on cells; endogenous receptor of RC-4B/C cells (ATCC); also called rat receptor; GPR10 receptor expressed in rat hypophyseal cells
T1 sequence (looked up): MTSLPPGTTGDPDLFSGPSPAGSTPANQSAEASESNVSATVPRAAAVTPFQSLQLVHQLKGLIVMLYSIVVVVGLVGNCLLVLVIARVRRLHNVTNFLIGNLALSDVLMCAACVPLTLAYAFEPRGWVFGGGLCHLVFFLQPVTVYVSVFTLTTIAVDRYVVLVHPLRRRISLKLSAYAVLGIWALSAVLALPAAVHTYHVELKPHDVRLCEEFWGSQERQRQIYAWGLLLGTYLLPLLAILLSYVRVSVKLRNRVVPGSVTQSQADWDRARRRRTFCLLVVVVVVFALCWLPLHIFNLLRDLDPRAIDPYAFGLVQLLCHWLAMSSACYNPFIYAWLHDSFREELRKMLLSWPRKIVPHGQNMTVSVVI
In words: competition with 125I-rat PrRP31, RC-4B/C cells. How it is done: The rat pituitary cell line RC-4B/C (ATCC, Manassas, USA) was grown on 24-well plates which had their bottom coated with polyethyleneimine. The cells were grown to the optimal density of 300-450 thousand cells per well.
(§1) Plates were incubated for 60 minutes at room temperature. After incubation, the cells were solubilized in 0.1 mol/l solution of NaOH, and the radioactivity bound to the cells was counted using a γ-counter. The experiments were performed in duplicate, and repeated at least three times.

Test [2] addresses T2, human PrRP receptor GPR10 (human, UniProt P49683 1-370).
T2 construct: whole, on cells; also called GPR10 human receptor transfected in CHO cells; human GPR10 receptor
T2 sequence (looked up): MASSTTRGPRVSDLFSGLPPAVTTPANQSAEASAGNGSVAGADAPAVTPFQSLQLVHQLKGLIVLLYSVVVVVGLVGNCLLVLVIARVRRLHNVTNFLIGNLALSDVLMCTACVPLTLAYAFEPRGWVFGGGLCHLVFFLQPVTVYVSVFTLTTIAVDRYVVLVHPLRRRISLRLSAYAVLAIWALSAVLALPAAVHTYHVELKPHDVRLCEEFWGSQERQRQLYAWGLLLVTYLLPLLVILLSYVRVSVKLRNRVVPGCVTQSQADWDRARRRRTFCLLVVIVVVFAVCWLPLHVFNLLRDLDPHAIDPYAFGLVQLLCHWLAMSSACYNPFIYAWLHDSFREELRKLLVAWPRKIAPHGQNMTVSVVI
Description: competition with 125I-human PrRP31, CHO cells with human GPR10. The procedure:
CHO cells transfected with human PrRP receptor GPR10 (Perkin Elmer, USA) were grown on 24-well plates coated with polyethyleneimine. […] The following agents were used for the experiment: binding buffer (25 mmol.1⁻¹ Tris, pH 7.4; 118 mmol.1⁻¹ NaCl, 10 mmol.1⁻¹ MgCl₂, 1 mmol.1⁻¹ CaCl₂, 5.5 mmol.1⁻¹ glucose, 0.5 mg/ml BSA), unlabeled analogs of PrRP (i.e. the analog being tested) at a final concentration between 10⁻¹¹ to 10⁻⁴ mol.1⁻¹, and radiolabeled human ¹²⁵1-PrRP31 at a final concentration of 5×10⁻¹¹ mol.1⁻¹.
as §1

B1: analog no. 46 (peptide)
peptide: Myristoyl-SRAHQHSMETRTPDINPAWYTGRGIRPVGRF-NH2
SMILES: CCCCCCCCCCCCCC(=O)N[C@@H](CO)C(=O)N[C@@H](CCCNC(=N)N)C(=O)N[C@@H](C)C(=O)N[C@@H](Cc1c[nH]cn1)C(=O)N[C@@H](CCC(N)=O)C(=O)N[C@@H](Cc1c[nH]cn1)C(=O)N[C@@H](CO)C(=O)N[C@@H](CCSC)C(=O)N[C@@H](CCC(=O)O)C(=O)N[C@H](C(=O)N[C@@H](CCCNC(=N)N)C(=O)N[C@H](C(=O)N1CCC[C@H]1C(=O)N[C@@H](CC(=O)O)C(=O)N[C@H](C(=O)N[C@@H](CC(N)=O)C(=O)N1CCC[C@H]1C(=O)N[C@@H](C)C(=O)N[C@@H](Cc1c[nH]c2ccccc12)C(=O)N[C@@H](Cc1ccc(O)cc1)C(=O)N[C@H](C(=O)NCC(=O)N[C@@H](CCCNC(=N)N)C(=O)NCC(=O)N[C@H](C(=O)N[C@@H](CCCNC(=N)N)C(=O)N1CCC[C@H]1C(=O)N[C@H](C(=O)NCC(=O)N[C@@H](CCCNC(=N)N)C(=O)N[C@@H](Cc1ccccc1)C(N)=O)C(C)C)[C@@H](C)CC)[C@@H](C)O)[C@@H](C)CC)[C@@H](C)O)[C@@H](C)O
As to B1, in test [1], the “% of PrRP31” value is 657% and the affinity corresponds to a Ki of 0.00075 µM.

B2: analog no. 47 (peptide)
peptide: Palmitoyl-SRAHQHSMETRTPDINPAWYTGRGIRPVGRF-NH2
SMILES: CCCCCCCCCCCCCCCC(=O)N[C@@H](CO)C(=O)N[C@@H](CCCNC(=N)N)C(=O)N[C@@H](C)C(=O)N[C@@H](Cc1c[nH]cn1)C(=O)N[C@@H](CCC(N)=O)C(=O)N[C@@H](Cc1c[nH]cn1)C(=O)N[C@@H](CO)C(=O)N[C@@H](CCSC)C(=O)N[C@@H](CCC(=O)O)C(=O)N[C@H](C(=O)N[C@@H](CCCNC(=N)N)C(=O)N[C@H](C(=O)N1CCC[C@H]1C(=O)N[C@@H](CC(=O)O)C(=O)N[C@H](C(=O)N[C@@H](CC(N)=O)C(=O)N1CCC[C@H]1C(=O)N[C@@H](C)C(=O)N[C@@H](Cc1c[nH]c2ccccc12)C(=O)N[C@@H](Cc1ccc(O)cc1)C(=O)N[C@H](C(=O)NCC(=O)N[C@@H](CCCNC(=N)N)C(=O)NCC(=O)N[C@H](C(=O)N[C@@H](CCCNC(=N)N)C(=O)N1CCC[C@H]1C(=O)N[C@H](C(=O)NCC(=O)N[C@@H](CCCNC(=N)N)C(=O)N[C@@H](Cc1ccccc1)C(N)=O)C(C)C)[C@@H](C)CC)[C@@H](C)O)[C@@H](C)CC)[C@@H](C)O)[C@@H](C)O
Turning to B2, in test [1], the “% of PrRP31” value stood at 1200%; the inhibition constant Ki (as a rule, the dissociation constant of the complex between target and ligand, obtained from inhibition or displacement) was 0.00041 µM.

B3: analog no. 45 (peptide)
peptide: Palmitoyl-SRTHRHSMEIRTPDINPAWYASRGIRPVGRF-NOMe
SMILES: CCCCCCCCCCCCCCCC(=O)N[C@@H](CO)C(=O)N[C@@H](CCCNC(=N)N)C(=O)N[C@H](C(=O)N[C@@H](Cc1c[nH]cn1)C(=O)N[C@@H](CCCNC(=N)N)C(=O)N[C@@H](Cc1c[nH]cn1)C(=O)N[C@@H](CO)C(=O)N[C@@H](CCSC)C(=O)N[C@@H](CCC(=O)O)C(=O)N[C@H](C(=O)N[C@@H](CCCNC(=N)N)C(=O)N[C@H](C(=O)N1CCC[C@H]1C(=O)N[C@@H](CC(=O)O)C(=O)N[C@H](C(=O)N[C@@H](CC(N)=O)C(=O)N1CCC[C@H]1C(=O)N[C@@H](C)C(=O)N[C@@H](Cc1c[nH]c2ccccc12)C(=O)N[C@@H](Cc1ccc(O)cc1)C(=O)N[C@@H](C)C(=O)N[C@@H](CO)C(=O)N[C@@H](CCCNC(=N)N)C(=O)NCC(=O)N[C@H](C(=O)N[C@@H](CCCNC(=N)N)C(=O)N1CCC[C@H]1C(=O)N[C@H](C(=O)NCC(=O)N[C@@H](CCCNC(=N)N)C(=O)N[C@@H](Cc1ccccc1)C(=O)NOC)C(C)C)[C@@H](C)CC)[C@@H](C)CC)[C@@H](C)O)[C@@H](C)CC)[C@@H](C)O
Regarding B3, the “% of PrRP31” value in test [2] was determined as 92%. With SHQRPADTHWYPRG[Nle]FPTIGRITARNGEVSR (scrambled peptide; also called 19 scram) [analog no. 19], in test [1], the “% of PrRP31” value amounted to 4e-05% and the inhibition constant (Ki) was 1320 µM.

B4: analog no. 44 (peptide)
peptide: Palmitoyl-SRTHRHSMEIRTPDINPAWYASRGIRPVGRF-NHMe
SMILES: CCCCCCCCCCCCCCCC(=O)N[C@@H](CO)C(=O)N[C@@H](CCCNC(=N)N)C(=O)N[C@H](C(=O)N[C@@H](Cc1c[nH]cn1)C(=O)N[C@@H](CCCNC(=N)N)C(=O)N[C@@H](Cc1c[nH]cn1)C(=O)N[C@@H](CO)C(=O)N[C@@H](CCSC)C(=O)N[C@@H](CCC(=O)O)C(=O)N[C@H](C(=O)N[C@@H](CCCNC(=N)N)C(=O)N[C@H](C(=O)N1CCC[C@H]1C(=O)N[C@@H](CC(=O)O)C(=O)N[C@H](C(=O)N[C@@H](CC(N)=O)C(=O)N1CCC[C@H]1C(=O)N[C@@H](C)C(=O)N[C@@H](Cc1c[nH]c2ccccc12)C(=O)N[C@@H](Cc1ccc(O)cc1)C(=O)N[C@@H](C)C(=O)N[C@@H](CO)C(=O)N[C@@H](CCCNC(=N)N)C(=O)NCC(=O)N[C@H](C(=O)N[C@@H](CCCNC(=N)N)C(=O)N1CCC[C@H]1C(=O)N[C@H](C(=O)NCC(=O)N[C@@H](CCCNC(=N)N)C(=O)N[C@@H](Cc1ccccc1)C(=O)NC)C(C)C)[C@@H](C)CC)[C@@H](C)CC)[C@@H](C)O)[C@@H](C)CC)[C@@H](C)O
With B4, the “% of PrRP31” value in test [2] came to 123%.

B5: analog no. 26 (peptide)
peptide: Myristoyl-[dF][dR]GVPRIGRGTYWAPNIDPT-NH2
SMILES: CCCCCCCCCCCCCC(=O)N[C@H](Cc1ccccc1)C(=O)N[C@H](CCCNC(=N)N)C(=O)NCC(=O)N[C@H](C(=O)N1CCC[C@H]1C(=O)N[C@@H](CCCNC(=N)N)C(=O)N[C@H](C(=O)NCC(=O)N[C@@H](CCCNC(=N)N)C(=O)NCC(=O)N[C@H](C(=O)N[C@@H](Cc1ccc(O)cc1)C(=O)N[C@@H](Cc1c[nH]c2ccccc12)C(=O)N[C@@H](C)C(=O)N1CCC[C@H]1C(=O)N[C@@H](CC(N)=O)C(=O)N[C@H](C(=O)N[C@@H](CC(=O)O)C(=O)N1CCC[C@H]1C(=O)N[C@H](C(N)=O)[C@@H](C)O)[C@@H](C)CC)[C@@H](C)O)[C@@H](C)CC)C(C)C
notes: scrambled peptide; also called 26 scram
B5: in test [1], the “% of PrRP31” value turned out to be 1.4% and the Ki is 0.364 µM.

With TPDINPAWYASRGIRPVGRF-NH2 (synthetic peptide) [Human PrRP20], in test [1], the “% of PrRP31” value was 277% and the Ki stood at 0.00178 µM.

B6: analog no. 50 (peptide)
peptide: TPDINPK(Palmitoyl)WYASRGIRPVGRF-NH2
modifications: N-terminus assumed
SMILES: CCCCCCCCCCCCCCCC(=O)NCCCC[C@H](NC(=O)[C@@H]1CCCN1C(=O)[C@H](CC(N)=O)NC(=O)[C@@H](NC(=O)[C@H](CC(=O)O)NC(=O)[C@@H]1CCCN1C(=O)[C@@H](N)[C@@H](C)O)[C@@H](C)CC)C(=O)N[C@@H](Cc1c[nH]c2ccccc12)C(=O)N[C@@H](Cc1ccc(O)cc1)C(=O)N[C@@H](C)C(=O)N[C@@H](CO)C(=O)N[C@@H](CCCNC(=N)N)C(=O)NCC(=O)N[C@H](C(=O)N[C@@H](CCCNC(=N)N)C(=O)N1CCC[C@H]1C(=O)N[C@H](C(=O)NCC(=O)N[C@@H](CCCNC(=N)N)C(=O)N[C@@H](Cc1ccccc1)C(N)=O)C(C)C)[C@@H](C)CC
As for B6, in test [2], the “% of PrRP31” value came out at 69% and the inhibitory constant (Ki) was determined as 0.00564 µM.

B7: analog no. 49 (peptide)
peptide: TPDIK(Palmitoyl)PAWYASRGIRPVGRF-NH2
modifications: N-terminus assumed
SMILES: CCCCCCCCCCCCCCCC(=O)NCCCC[C@H](NC(=O)[C@@H](NC(=O)[C@H](CC(=O)O)NC(=O)[C@@H]1CCCN1C(=O)[C@@H](N)[C@@H](C)O)[C@@H](C)CC)C(=O)N1CCC[C@H]1C(=O)N[C@@H](C)C(=O)N[C@@H](Cc1c[nH]c2ccccc12)C(=O)N[C@@H](Cc1ccc(O)cc1)C(=O)N[C@@H](C)C(=O)N[C@@H](CO)C(=O)N[C@@H](CCCNC(=N)N)C(=O)NCC(=O)N[C@H](C(=O)N[C@@H](CCCNC(=N)N)C(=O)N1CCC[C@H]1C(=O)N[C@H](C(=O)NCC(=O)N[C@@H](CCCNC(=N)N)C(=O)N[C@@H](Cc1ccccc1)C(N)=O)C(C)C)[C@@H](C)CC
As for B7, in test [2], the “% of PrRP31” value came to 90% and the affinity, expressed as Ki, was 0.00434 µM. As for SRTHRHSMEIK(Palmitoyl)TPDINPAWYASRGIRPVGRF-NH2 [analog no. 48], in test [2], the “% of PrRP31” value turned out to be 61% and the Ki is 0.00637 µM.

These data come from US20150196651A1 (published 2015).
